Experimental data published in the supplement of paper PMC6757056.
± gives the standard deviation of the averaged measurements.

B1: library; a variant is named by its letters at N, in order (parent)
chain: GCUGUCACCGAGAAACUGUGAAGUAUAUCUUAAACCUGGGCACUUAAAAGAUAUAUGGAGUUAGUAGUGCAACCUGCUCGGUCUGAUGAGUCCNNNNNNGGACGAAACAGC

How the values were obtained:
[1] = variants of: B1; assay: normalized RNA/DNA level without ligand (relative to sTRSVctl = 100) (log10 (% of sTRSVctl)); HEK293T; ligand: cyclic di-GMP (c-di-GMP-II aptamer); higher = less ribozyme self-cleavage, higher mRNA level; details: reporter: mCherry (pCS4076), ligand present: no
Summary of the method: (§1)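 RNA level was computed as RNA reads over DNA reads divided by a spiked-in non-cleaving sequence or by the top sequences, then scaled and log-transformed. Scaling was ×100 with log10, the top group was 25 sequences, and the threshold was ≥100 DNA reads. The reads came from HEK293T cells transfected at 4 µg per 6-well well with ribozyme switch library plasmids (mCherry, or eGFP in some ligand experiments). Total RNA was extracted with EDTA 72 h after transfection, with any ligand added 1 h before it.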

[2] = variants of: B1; assay: normalized RNA/DNA level with ligand (relative to sTRSVctl = 100) (log10 (% of sTRSVctl)); HEK293T; ligand: cyclic di-GMP (c-di-GMP-II aptamer); ligand concentration (+) RNA-Seq: 1 mM; higher = less ribozyme self-cleavage, higher mRNA level; details: reporter: mCherry (pCS4076), ligand present: yes
Summary of the method: as §1

Row | Variant | normalized RNA/DNA level without ligand (log10) [1] | normalized RNA/DNA level with ligand (log10) [2]
1 | ACCAAU | 1.48 ± 0.049 | 1.7 ± 0.11
2 | CCAGAU | 1.65 ± 0.025 | 1.81 ± 0.12
3 | CCAGAG | 1.42 ± 0.049 | 1.62 ± 0.17
4 | GCCAGA | 1.48 ± 0.05 | 1.68 ± 0.1
5 | UCAGUU | 1.52 ± 0.16 | 1.74 ± 0.13
6 | ACAUAU | 1.45 ± 0.097 | 1.64 ± 0.14
7 | ACAGAC | 1.49 ± 0.056 | 1.71 ± 0.049
8 | GCCACG | 1.68 ± 0.051 | 1.81 ± 0.12
9 | GCCACA | 1.654 ± 0.016 | 1.81 ± 0.089
10 | GCCACU | 1.684 ± 0.016 | 1.86 ± 0.12
11 | GCAUCA | 1.61 ± 0.11 | 1.77 ± 0.12
12 | GCAUCC | 1.65 ± 0.077 | 1.82 ± 0.052
13 | GCAUCG | 1.59 ± 0.045 | 1.76 ± 0.099
14 | GCAUUA | 1.47 ± 0.089 | 1.71 ± 0.12
15 | GCAUUC | 1.423 ± 0.011 | 1.7 ± 0.17
16 | GCAUUU | 1.55 ± 0.037 | 1.74 ± 0.095
17 | ACAGUC | 1.62 ± 0.045 | 1.78 ± 0.11
18 | ACAGUA | 1.31 ± 0.048 | 1.51 ± 0.15
19 | ACAGUG | 1.51 ± 0.11 | 1.68 ± 0.067
20 | UCAUUC | 1.69 ± 0.051 | 1.85 ± 0.084
21 | UCAUUG | 1.617 ± 0.0034 | 1.82 ± 0.082
22 | UCCACU | 1.695 ± 0.011 | 1.85 ± 0.12
23 | UCCACA | 1.74 ± 0.035 | 1.87 ± 0.12
24 | UCCACG | 1.77 ± 0.057 | 1.87 ± 0.11

Row | Variant | normalized RNA/DNA level without ligand (log10) [1] | normalized RNA/DNA level with ligand (log10) [2]
25 | UCCACC | 1.635 ± 0.0036 | 1.8 ± 0.12
26 | ACAGGG | 1.5 ± 0.11 | 1.58 ± 0.15
27 | ACAGGU | 1.42 ± 0.16 | 1.64 ± 0.07
28 | ACAGGA | 1.3 ± 0.067 | 1.41 ± 0.16
29 | ACAGGC | 1.5 ± 0.065 | 1.68 ± 0.11
30 | UCACUG | 1.632 ± 0.0038 | 1.81 ± 0.16
31 | CCAUGG | 1.65 ± 0.11 | 1.82 ± 0.02
32 | CCAUGU | 1.68 ± 0.054 | 1.8 ± 0.097
33 | CCAUGA | 1.52 ± 0.033 | 1.72 ± 0.087
34 | GCAGCC | 1.6725 ± 0.00097 | 1.83 ± 0.14
35 | GCAGCG | 1.83 ± 0.035 | 1.92 ± 0.072
36 | GCAGCA | 1.82 ± 0.022 | 1.89 ± 0.092
37 | UCAGCA | 1.672 ± 0.004 | 1.82 ± 0.097
38 | UCAGCU | 1.671 ± 0.0017 | 1.82 ± 0.15
39 | UCAGCC | 1.818 ± 0.0024 | 1.88 ± 0.14
40 | UCAGGC | 1.71 ± 0.027 | 1.84 ± 0.11
41 | UCAGGA | 1.45 ± 0.071 | 1.67 ± 0.099
42 | UCAGGG | 1.64 ± 0.023 | 1.81 ± 0.12
43 | UCAGGU | 1.58 ± 0.12 | 1.76 ± 0.12
44 | GCAUAA | 1.41 ± 0.19 | 1.61 ± 0.064
45 | GCAUAU | 1.528 ± 0.014 | 1.72 ± 0.06
46 | GCCAAA | 1.49 ± 0.1 | 1.68 ± 0.08
47 | GCCAAC | 1.51 ± 0.086 | 1.66 ± 0.056
48 | ACAUGU | 1.541 ± 0.01 | 1.69 ± 0.091

Row | Variant | normalized RNA/DNA level without ligand (log10) [1] | normalized RNA/DNA level with ligand (log10) [2]
49 | ACAUGC | 1.59 ± 0.049 | 1.77 ± 0.053
50 | ACAUGA | 1.3 ± 0.07 | 1.53 ± 0.13
51 | UCAGAG | 1.53 ± 0.045 | 1.69 ± 0.042
52 | UCAGAC | 1.63 ± 0.017 | 1.76 ± 0.13
53 | UCAGAA | 1.35 ± 0.17 | 1.65 ± 0.14
54 | ACAUCU | 1.6 ± 0.07 | 1.76 ± 0.092
55 | ACAUCG | 1.51 ± 0.1 | 1.71 ± 0.16
56 | ACAUCC | 1.68 ± 0.047 | 1.83 ± 0.14
57 | ACAUCA | 1.683 ± 0.013 | 1.79 ± 0.063
58 | GCAUGC | 1.68 ± 0.026 | 1.81 ± 0.097
59 | GCAUGA | 1.38 ± 0.1 | 1.54 ± 0.086
60 | GCAUGG | 1.46 ± 0.15 | 1.67 ± 0.064
61 | GCAGAU | 1.43 ± 0.093 | 1.6 ± 0.083
62 | GCAGAC | 1.42 ± 0.068 | 1.59 ± 0.079
63 | ACAGCC | 1.66 ± 0.027 | 1.84 ± 0.1
64 | ACAGCU | 1.55 ± 0.062 | 1.73 ± 0.12
65 | ACAGCA | 1.66 ± 0.046 | 1.75 ± 0.095
66 | CCCAAG | 1.587 ± 0.0023 | 1.74 ± 0.17
67 | CCCAAU | 1.55 ± 0.066 | 1.77 ± 0.11
68 | CCCAAC | 1.61 ± 0.037 | 1.82 ± 0.086
69 | UCCAAU | 1.645 ± 0.015 | 1.82 ± 0.12
70 | UCCAAG | 1.6 ± 0.033 | 1.78 ± 0.097
71 | UCCAAC | 1.62 ± 0.037 | 1.78 ± 0.11
72 | CCCACC | 1.728 ± 0.007 | 1.84 ± 0.097

Row | Variant | normalized RNA/DNA level without ligand (log10) [1] | normalized RNA/DNA level with ligand (log10) [2]
73 | CCCACG | 1.75 ± 0.018 | 1.87 ± 0.044
74 | CCCACA | 1.57 ± 0.098 | 1.74 ± 0.05
75 | CCCACU | 1.624 ± 0.014 | 1.83 ± 0.12
76 | CCAUCU | 1.62 ± 0.074 | 1.76 ± 0.16
77 | CCAUCG | 1.73 ± 0.088 | 1.84 ± 0.1
78 | CCAUCA | 1.66 ± 0.052 | 1.77 ± 0.12
79 | CCAUCC | 1.81 ± 0.043 | 1.92 ± 0.092
80 | ACAUUC | 1.6 ± 0.084 | 1.81 ± 0.058
81 | ACAUUU | 1.42 ± 0.05 | 1.67 ± 0.11
82 | CCAGCC | 1.762 ± 0.0075 | 1.86 ± 0.13
83 | CCAGCU | 1.682 ± 0.011 | 1.86 ± 0.084
84 | CCAGCG | 1.76 ± 0.036 | 1.91 ± 0.097
85 | UCAUCG | 1.79 ± 0.023 | 1.88 ± 0.086
86 | UCAUCU | 1.71 ± 0.052 | 1.9 ± 0.1
87 | UCAUCC | 1.78 ± 0.027 | 1.9 ± 0.082
88 | UCAUGG | 1.77 ± 0.019 | 1.9 ± 0.08
89 | UCAUGC | 1.71 ± 0.081 | 1.89 ± 0.045
90 | UCAUGA | 1.57 ± 0.026 | 1.75 ± 0.12
91 | GCAGGC | 1.58 ± 0.032 | 1.71 ± 0.025
92 | GCAGGA | 1.4 ± 0.075 | 1.56 ± 0.091
93 | GCAGGG | 1.6 ± 0.05 | 1.74 ± 0.082
94 | ACCACA | 1.6 ± 0.019 | 1.76 ± 0.13
95 | ACCACU | 1.61 ± 0.062 | 1.82 ± 0.087
96 | ACCACG | 1.633 ± 0.01 | 1.81 ± 0.12

Row | Variant | normalized RNA/DNA level without ligand (log10) [1] | normalized RNA/DNA level with ligand (log10) [2]
97 | UCAUAG | 1.65 ± 0.02 | 1.77 ± 0.17
98 | UCAUAU | 1.54 ± 0.037 | 1.72 ± 0.13
99 | UCAUAA | 1.47 ± 0.065 | 1.67 ± 0.087
100 | UCAUAC | 1.674 ± 0.011 | 1.81 ± 0.11
101 | CCAGUG | 1.27 ± 0.14 | 1.48 ± 0.06
102 | CCAGGG | 1.52 ± 0.025 | 1.77 ± 0.12
103 | CCAGGU | 1.69 ± 0.061 | 1.82 ± 0.081
104 | CCAGGA | 1.5 ± 0.088 | 1.71 ± 0.12
105 | CCAUUC | 1.59 ± 0.043 | 1.77 ± 0.12
106 | CCAUUA | 1.41 ± 0.066 | 1.6 ± 0.093
107 | CCAUUU | 1.569 ± 0.013 | 1.7 ± 0.12
108 | GCACUG | 1.54 ± 0.092 | 1.75 ± 0.074
109 | ACACUU | 1.47 ± 0.091 | 1.72 ± 0.092
110 | ACACUG | 1.48 ± 0.04 | 1.68 ± 0.077
111 | GCAGUG | 1.736 ± 0.0028 | 1.78 ± 0.11
112 | GCAGUU | 1.45 ± 0.082 | 1.65 ± 0.11
113 | GCAGUC | 1.31 ± 0.064 | 1.51 ± 0.1
114 | CCAUAC | 1.632 ± 0.0016 | 1.78 ± 0.075
115 | CCAUAU | 1.55 ± 0.041 | 1.73 ± 0.071
116 | CCAUAG | 1.4 ± 0.17 | 1.66 ± 0.043
